Laboratory results as given in paper PMC10881513 (Nature Communications, 2024).

Target: T1, ASFV RNA polymerase subunit vRPB1 (African swine fever virus, strain BA71V, UniProt P42486 1-1450)
T1 sequence: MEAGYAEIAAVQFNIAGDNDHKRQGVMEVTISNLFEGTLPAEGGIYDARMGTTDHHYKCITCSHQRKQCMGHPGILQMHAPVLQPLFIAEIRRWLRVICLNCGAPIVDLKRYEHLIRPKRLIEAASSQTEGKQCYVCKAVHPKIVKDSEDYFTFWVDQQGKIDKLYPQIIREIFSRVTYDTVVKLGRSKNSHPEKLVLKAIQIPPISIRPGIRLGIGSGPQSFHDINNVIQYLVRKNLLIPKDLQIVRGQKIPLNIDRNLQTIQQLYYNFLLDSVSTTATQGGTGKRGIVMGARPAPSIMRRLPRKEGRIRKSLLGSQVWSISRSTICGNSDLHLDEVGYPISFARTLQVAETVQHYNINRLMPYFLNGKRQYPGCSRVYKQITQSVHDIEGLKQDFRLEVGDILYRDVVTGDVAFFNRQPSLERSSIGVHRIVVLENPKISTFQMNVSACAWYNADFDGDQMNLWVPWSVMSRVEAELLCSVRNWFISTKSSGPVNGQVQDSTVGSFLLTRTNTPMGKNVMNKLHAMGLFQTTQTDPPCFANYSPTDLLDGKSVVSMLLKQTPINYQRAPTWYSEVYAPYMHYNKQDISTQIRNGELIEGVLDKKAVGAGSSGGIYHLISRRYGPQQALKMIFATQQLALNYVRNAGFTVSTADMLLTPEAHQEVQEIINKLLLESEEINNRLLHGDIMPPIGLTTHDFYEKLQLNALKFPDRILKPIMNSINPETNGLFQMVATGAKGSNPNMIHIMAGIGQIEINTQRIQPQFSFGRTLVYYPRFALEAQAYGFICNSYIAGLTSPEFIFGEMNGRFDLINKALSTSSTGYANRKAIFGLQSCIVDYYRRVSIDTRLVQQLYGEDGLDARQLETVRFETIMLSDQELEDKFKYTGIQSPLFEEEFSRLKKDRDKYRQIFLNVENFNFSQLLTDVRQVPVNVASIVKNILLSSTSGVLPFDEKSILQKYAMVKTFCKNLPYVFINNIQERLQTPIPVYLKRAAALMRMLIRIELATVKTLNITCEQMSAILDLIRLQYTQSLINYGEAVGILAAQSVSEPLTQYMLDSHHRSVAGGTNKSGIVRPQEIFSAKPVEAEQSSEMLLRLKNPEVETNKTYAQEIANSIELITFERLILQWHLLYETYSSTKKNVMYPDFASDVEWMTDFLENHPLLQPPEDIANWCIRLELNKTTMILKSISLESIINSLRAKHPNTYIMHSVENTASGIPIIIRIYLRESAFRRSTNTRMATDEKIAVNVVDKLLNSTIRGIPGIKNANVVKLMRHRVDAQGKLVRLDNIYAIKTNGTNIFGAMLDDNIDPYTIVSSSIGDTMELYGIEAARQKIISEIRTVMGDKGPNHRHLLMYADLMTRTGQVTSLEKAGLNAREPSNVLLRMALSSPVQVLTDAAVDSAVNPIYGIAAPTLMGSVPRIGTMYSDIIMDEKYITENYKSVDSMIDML
Assay: cryo-EM structure
Details: both partners purified

B1: ASFV RNA polymerase subunit vRPB2, His-ZZ-tag cleaved with TEV (natural protein)
chain: MEPLRPQITYGPIETVDNEELTEADMLSFISAAVNSTGLIGYNIKSFDDLMDNGIPQIVKQMFNVDITYKDQRDHTEIDKLRESVQIQFNFTDVNIERPQHRNYSQGNKINLLPNKARLCGLSYSGPVNLAAEVILTAHYSNGRQEVKRASIPPFQVSTFPIMRGSNRCHTHHLSKTAKKEIGEDPNEPGGYFIARGGEWVVDLLENIRFNTLHIHYHTMQQGNNEIIRGEFISQPGGAFENSSQIIIRYMTTGAITIEINSTKFSKLRIPWYLIFRMFGMTGDDSIIEQVVFDLESNSPVNTFMIEILEKSIHVLDPIFQPVQHEPNREKIIQFLSEKVSKFVSNPSAYKSDENAVQYLNERQLTILDKILLPHMGQTADTRVRKLRFLGLLIHKILLVIMNVFPPTDRDSYRTKRVHGSGVSLAKAFKAIFNTSVIAPIINGFKELLKQTAFEELTQRNIIEAFSAALSKNTASDLNRSMEQSIISGNKTIMVRQRPIVNRVSTQSLERKNLLNTISALRTVNTHNTTNASKQTERADMMRRVHASYPGYICVAQSADTGEKVGMSKQLAITANVCTAGEVLSLKQRLLSDPAIQQLADVSNKDIVRKGLARVFINGEWIGCCTNAFELAQRYRMFRREGKIVHPHTTIYWDSMVDEVEFWLDVGRLTRPLLIVDNNIEKYNQACYKAAEARKKGDKDWEKHKIPFIQNTRFTSQMAKDILAGTLTLEDLVAQGICEFITPEEAENCLVAFSIIELRKHKHDVTRRFTHVDVPQAILGLAALVSPYANCTQPARVTYETNQGRQTGGWYCFSWPYRVDMNRFFQFYNEMPLVKTIAHNYVIPNGLNTIVAYMIYGGYNQEDSVIVSQSFIDRGGFAGTFYREEKVELESDIESFGKPDPLITKNLKPGANYEKLVDGFVPVGTVVKKGDIIIGKVAKIRGEKDELNKYIDRSVMYGFDEPAVVDAVMRPHGPNDEIFGLMRLRYERNLNIGDKMSSRSGNKGIAALALPTSDMPFTEDGLQPDLIVNPHSHPSRMTNGQMIETTVGLANALQGVVTDGTAFLPINVQLLSERLAQEGLRFNGCQKMFNGQTGEYFDAAIFIGPTYHQRLQKFVLDDRYAVASYGPTDALTGQPLDGKRSHGGLRLGEMEHWVLTAQGAMQTIIEKSHDDSDGCISYICRNCGEPAIYNASHPIYKCMNCDVQADIGMVDSRRSSIVFQHEMRAANVNITSVLSPRVFQPA
binding result: binds
